Test results published in patent publication US20160040149A1, “Compositions Having Dicamba Decarboxylase Activity and Methods of Use” (priority 2013, published 2016).
Substitutions are numbered along the chain they refer to.

Test: Saturation mutagenesis of SEQ ID NO:109: dicamba decarboxylation activity of point mutants (CO2 released), fold of backbone (Tables 7, 8, Megatable 1)
Conditions: decarboxylation activity (CO2 released) of point mutant vs unmutated backbone protein; backbone SEQ ID NO: 109

B1: 15 (protein, listed as Metarhizium anisopliae)
chain: MAQEIAKSHETSTRFAGFAVLPMRDPEAAAKELERAVKKLGFVGALVDHKTAHGNGFCEGNEYDVLWRKAEQLAVPIYLHPSWPTEKQFQQAYAGNYSPTAAGTIGGAMFNWHSEVGHHVLRLYAAGVFDKFPKLKIIIGHFGEMIPYMLDRIREQDHRLGKTGRTFSEVYDENIWITTSGVWSLDPMRCILANTKIDHILYSVDYPFTMNERGLEWFQELEKSGLLSEEDLALIAYKNCEKLLGVKAPTQD
Fold Activity: 1 fold

B2: 16 (protein, listed as Staphylococcus aureus)
chain: MAQNNMEANQMKSITFEEHYVIEDIQKETMNAISADPKGVPMKVMLEGLEKKTGFTNADELSHHDERIQFMNNQDVQIQVLSYGNGSPSNLVGQKAIELCQKANDQLANYIAQYPNRFVGFATLPINEPETAAREFERCINDLGFKGALIMGRAQDGFLDQDKYDIIFKTAENLGVPIYLHPAPVNSDIYQSYYKGNYPEVTAATFACFGYGWHIDVGIHAIHLVLSGIFDRYPKLNMIIGHWGEFIPFFLERMDEALFAEHLNHPVSYYFKNNFYITPSGMLTKPQFDLVKKEAGIDRILYAADYPYIEPEKLGVFLDELGLTDEEKEKISYTNGAKLLGLSSNN
Fold Activity: 1.1 fold

B3: 24 (protein)
chain: MALGKVVLEEAYERPNMKEKSNHEAGLYIAPNDRPRYMRQINDINQERLKLADAHGVGYTIISLTVPGIQGIFDKTEAERVATETNNWAAEQIKNHRDRLGAFACLSMHDPAQAANELRRCVQELGFHGALLCSFQHAGPDGETYLFYDQPKYDVFWKALTELDVPLYIHPAAPTGSILERLYAQRPALIGPPLSFANDVSLHTLGIISNGVFDRFPNLKIIIGHLGEHIPFDFWRIDHWFRDVKKPIADEEGRVMAQKSLYHYFKHNIWLTTSGHFSTPTLKYVVNEIGVDRVLFSVDYPYETTESGCNWWDHDKDAIVEAVGGVDNYYAIGRENAKKLLRLDKFHDSDAR
modifications: Aspergillus niger
Fold Activity: 1.6 fold

B4: 19 (protein, listed as Talaromyces marneffei)
chain: MATPIITLEEHYISSAIRDASETDHYAVFPSQIISKLNTLSTERLQDLDNGHVSLQVISHGPGAQPPYLCQAANDELASAISANPTRFAGFALLPIAEPQLAVQELERCITQHKFVGALIDNHTNGQFYDDQKFWPVFEKAQELDAPIYVHPSYPDEESGVAAHYRGNYDDRIAAALGAYGWGWHSDTALSILRLFAAGLFDTYPNIKIIIGHMGEMLPFQLERVIGIASRFGRSRGLREVWTQNIWVTTSGMFALAPLACLLQTMPIERVLYSVDYPFSANEKGFAFLEEIKKSGLIKEGEDWERFLYKNAQELLKVNV
Fold Activity: 1.6 fold

B5: 21 (protein, listed as Agrobacterium tumefaciens)
chain: MAQGKVALEEHFAIPETLQDSAGFVPGDYWKELQHRLLDIQDTRLKLMDAHGIETMILSLNAPAVQAIPDRKKAIEIARRANDVLAEECARRPDRFLAFAALPLQDPDAATQELQRCVNDLGFVGALVNGFSQEGDGQTPLYYDLPQYRPFWGEVEKLDVPFYLHPRNPLPQDSRIYDGHPWLLGPTWAFAQETAVHALRLMASGLFDAHPRLNIILGHMGEGLPYMMWRIDHRNAWVKLPPRYPAKRRFVDYFNENFHITTSGNFRTQTLIDAILEIGADRILFSTDWPFENIDHASDWFNATTIAEADRVKIGRTNARRLFKLDGR
Fold Activity: 1.9 fold

B6: 25 (protein, listed as Acidovorax avenae)
chain: MAQGKIGLEEHFAIPETLQDSAGFVPGDYWKELSLRLLDIHERRLREMDENGMEMMILSLNAPAVQAIPDTKKAVEIAVRANDFLAEQVARRPDRFQAFAALPMQDPDLATRELERCMQDLGFRGALVNGFSQVGTPENVVYYDAPQYGDFWAAVERLDAPFYLHPRNPIASWAQIYQGHPWLMGPTWAFAQETAVHALRLMASGLFDRHPGLRIILGHLGEGLPYNMWRVDHRNAWVDMPKGYPAKRKLCDYFHENFYLTTSGNFRTQTLIDALLEVGADRILFSTDWPFENVDHAAHWFDDAAISEADRLKIGRTNALSLFKLPQG
Fold Activity: 1 fold

B7: 23 (protein, listed as Aplysina aerophoba)
chain: MAIDIDARSQPGLETARRAMSRRDFLGGAAAFGITAAATTALPASTAAGEEEDLFLLGLEEHFATAELRRLNGIQFPQGTPRFDINDVGAGRIADMDAAGIDIQVLSALTPGAQNLPGAEGVAYARRLNSWVAHEVIPAYPGRFRAFATLPLSEPQAAADELEYAVRELGFLGCMTYGAVDGKFLDHADFVPVLARAETLDVPIYIHPNWASPQVMDTYYNGLGNEWVSRVLSGAGYGWHQEVALQCLRMIASGVFDRFPRLQIIVGHMGEGLPFFYWRFGDDLARITADTLEKPVQQYFHDNFWITTSAFFRDELLRLVLSVMGEDRVMFAVDYPFVSNKVGADWFRAVDLPRNVKEKIAHKNAERLLKIGPF
Fold Activity: 1.5 fold

B8: 26 (protein, listed as Variovorax paradoxus)
chain: MATHMAPMKNKIALEEHFAIDLTIADSQVYARPEVWQGLKSNLLDFEQQRLEKMDEWGTEFSILSLNSPAVQGIPDAKRAIEVAQRANDVLAEQVKRHPTRFGGFAALPMQDPEASARELERCVNQLGFHGFLVNGFSQVGDENIVVYYDDARFNDFWTAAAALKKPFYMHPRDPLLAREPIYDGAHWLTGPTWAFAMETAIHALRLMSSGMFDRHPALQMILGHFGEGIPFNIWRVDHILRKGRRGMPCDKEIGEYLRSNVHITTSGNFRTPTLLSTMLEVGSDRIMYSVDYPFEKHEDAARWFDTCEISENDRQKIGRDNARKLFGLK
Fold Activity: 1.2 fold

B9: 22 (protein, listed as Staphylococcus epidermidis)
chain: MAKSINFEEHYVVDDIQKETMKYMSSDPNGVPMQTMLKGLEQKSGFTNADDITKHDERIKFMDEHDVEMQVLSYGNGAPSNLEGERAIELCQQANDTLAKYVNEHPDRFVGFATLPINEPQAAVEEFKRCIKELGFKGALIMGHPKNGFLDQDQYDDLFATAEALNVPIYLHPSPVQSDVYQAYYKGNYSDVTAATFACFGYGWHVDVGIHAIHLVLSGVFDRHPNLNMIIGHWGEFVPFFLERMDDILFADHLEHPISYYFKNNFYITPSGMLTKPQFDLVKAEVGVDRILYSADYPYVEPDKLGTFLDELDLTEEEKEKISYKNGAKLLGLEK
Fold Activity: 1.6 fold

B10: 18 (protein, listed as Legionella pneumophila)
chain: MAIVDFETHFITEACIDYLTQRQEVPKLVPELNGAYTMCFTPDVSLFHTSALMEELLSLNEQRLAIMDQAGVTIQVLSLTTINGIDSCPGDENKSTALAREVNDQLYSAIQKHPERFKGFASISPYDVKEGVKELERAISQLGFVGWLTHSNFGQDNYLDDKIYWPLLEAAESLNIPIYLHPNVPIMREFGKYGFALGGSALGFEFDTALCLMRMILGGVFDAFPKLKIMLGHLGETMPFLMERLDHLYRIPDLKPYRPSIQRIPSEVLRQNVYITTSGRFFVPALRYVLEVMGEDRVLFASDYPMESLLDATRFIQDSDLSNQTKQKIFSINAKNLNLI
Fold Activity: 1.2 fold

B11: 20 (protein, listed as Legionella pneumophila)
chain: B10 chain with E31D, K112R, I163T, S173G, P256A
Fold Activity: 1.8 fold

B12: 28 (protein, listed as Sphingomonas paucimobilis)
chain: MARLIATEEAVTFQPVVDALRAHSRTDDASLDMILVRDVYGDEPARPAMIGRLSDVTGERLAEMDSNGVDMHLLSLTAPGVQMFDAETGTRLARIANDLMAQTVAANPTRFAGLGTFAPQDPASAAREIERVATQLRLNGLVINSHTNDLYYDDPFFHPVFEAIEASGLALYIHPRAPSKQIDRAFRDYGMNSAIWGYGIETSTNAVRMILSGLFDRFPRLKIVLGHMGEAIPFWLWRLDYMHGNATTFGGAPKLKLKPSEYFRRNFAITTSGVESHAALRYSIEVLGPENVMWAIDYPYQPMAPAVQFIRTAPIPEDVKAMVAGGNAARIFRIT
Fold Activity: 1.2 fold

B13: 29 (protein, listed as Pseudovibrio sp.)
chain: MAGRRDFLRKSVAAGVGLTAAAQLSAGGAQATVPDTSNIPLITLEEHFTTPELQSKNTSGDKRLFSGGGSRPELLDVGAGRIADMDEAGIDIQVLSTVTPGASKITGAEGVEFTRKFNTWIAEEVIAAYPNRFRAFATLPLSSPEAAADELERSVREYGFVGTMTYGPIDGKFLDHADYAPLLARAEALGVPIYIHPNWPSPTAMQAYYDGLGDDLTSRILSGPGYGWHQEIAVQCLRLIVGGVFDRFPNLQIVVGHMGEGLPFYYWRVGEDLDRIAQKRLQKPVQQYFHDNLWITTSAFFRDELLNLALATMGEDRVMFSVDYPMASAKVGADWLRAADIPLATKEKIGSKNAMKLLGIDKI
Fold Activity: 1.5 fold

B14: 27 (protein, listed as Aspergillus oryzae)
chain: MALGKIALEEAFALPRFEEKTRWWASLFSTDAETHVKEITDINKIRIEHADKHGVGYQILSYTAPGVQDIWDPVEAQALAVEINDYIAEQVRVNPDRFGAFATLSMHNPKEAADELRRCVEKYGFKGALVNDTQRAGPDGDDMIFYDNADWDIFWQTCTELDVPFYMHPRNPTGTIYEKLWADRKWLVGPPLSFAHGVSLHVLGMVTNGVFDRHPKLQIIMGHLGEHVPFDMWRINHWFEDRKKLLGLAETCKKTIRDYFAENIWITTSGHFSTTTLNFCMAEVGSDRILFSIDYPFETFSDACEWFDNAELNGTDRLKIGRENAKKLFKLDSYKDSSA
Fold Activity: 1 fold

B15: 17 (protein)
chain: MARGKIALEEAFEVKGMDEEIDAQAALYIAPKDVERYKRQIVSITDERLQLSDQNGIGYSILSLTVPGIQGITDKDKAEKRARDVNNYIHDQIKDHRDRLGAFAALSMHDPRQAGHELRRCVKELGFHGALLNDVQHTGEGDDDQPLFYDQPDYDEFWRVAVELDVPVYLHPAAPLRDTLIYKQSYEDRKYLVGPPQSYCNGVALHLMGIIVNGVFDRFPNLKVIVGHMGERIPFDFWRMDHWVKGVTRPLAEKNGDTVCQKEPLYYFKRNIYITTSGHFSTQNLRYLYEWLGDERMMFSVDFPYERMEHGCQWYDDDAEKIKEALGGRDGYLRVGRDNARRLFKLTKFKDCDAV
modifications: Aspergillus niger
Fold Activity: 1.8 fold
